Measurements published in US20080219962.

What was measured:
[1] = tested on: Runx2-P415R
[2] = tested on: Runx2-del-415-418
[3] = tested on: myc-labeled Runx2
Sequence of myc-labeled Runx2 (chain, as listed by the source): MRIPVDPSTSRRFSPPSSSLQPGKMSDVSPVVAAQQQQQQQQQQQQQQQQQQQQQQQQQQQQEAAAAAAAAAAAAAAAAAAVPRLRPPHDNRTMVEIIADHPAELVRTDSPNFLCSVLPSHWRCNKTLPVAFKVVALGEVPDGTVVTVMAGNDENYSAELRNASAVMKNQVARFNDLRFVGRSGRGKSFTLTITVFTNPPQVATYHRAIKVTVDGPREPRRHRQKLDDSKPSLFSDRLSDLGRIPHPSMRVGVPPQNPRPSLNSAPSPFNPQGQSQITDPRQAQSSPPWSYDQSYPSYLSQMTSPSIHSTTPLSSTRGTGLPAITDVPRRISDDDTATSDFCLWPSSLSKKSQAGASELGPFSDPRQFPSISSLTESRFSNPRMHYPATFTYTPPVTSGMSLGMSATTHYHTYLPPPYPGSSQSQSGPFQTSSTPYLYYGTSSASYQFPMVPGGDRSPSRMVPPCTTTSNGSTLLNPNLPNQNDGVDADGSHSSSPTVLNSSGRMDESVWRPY

Sequence of Smurf1 (Smad ubiquitin regulatory factor 1) (Q9HCE7 whole entry): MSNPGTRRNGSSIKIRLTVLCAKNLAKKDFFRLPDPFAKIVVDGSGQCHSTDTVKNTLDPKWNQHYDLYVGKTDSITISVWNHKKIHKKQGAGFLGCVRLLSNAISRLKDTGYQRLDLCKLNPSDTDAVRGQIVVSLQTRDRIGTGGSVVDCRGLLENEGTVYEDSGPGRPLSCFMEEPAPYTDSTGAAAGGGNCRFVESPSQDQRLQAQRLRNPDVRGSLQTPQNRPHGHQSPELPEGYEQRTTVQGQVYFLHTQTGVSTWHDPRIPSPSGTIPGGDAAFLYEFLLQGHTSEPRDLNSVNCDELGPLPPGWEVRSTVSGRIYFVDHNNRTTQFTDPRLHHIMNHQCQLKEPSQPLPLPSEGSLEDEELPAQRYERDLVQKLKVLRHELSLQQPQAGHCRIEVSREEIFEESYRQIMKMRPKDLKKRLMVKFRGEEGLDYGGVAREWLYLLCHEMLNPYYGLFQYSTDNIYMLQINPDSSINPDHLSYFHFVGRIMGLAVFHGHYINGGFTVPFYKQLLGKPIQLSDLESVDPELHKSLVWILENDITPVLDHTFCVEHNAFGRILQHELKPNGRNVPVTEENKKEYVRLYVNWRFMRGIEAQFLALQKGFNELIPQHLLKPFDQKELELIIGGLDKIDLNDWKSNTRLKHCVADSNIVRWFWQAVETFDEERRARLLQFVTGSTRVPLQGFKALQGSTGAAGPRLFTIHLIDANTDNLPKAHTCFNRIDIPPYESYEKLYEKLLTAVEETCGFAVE
Sequence of Runx2-P415R (chain, as listed by the source P415R): as the sequence (chain, as listed by the source) above, with P415R counted along it
Sequence of myc-labeled HDAC5 (Q9UQL6 whole entry): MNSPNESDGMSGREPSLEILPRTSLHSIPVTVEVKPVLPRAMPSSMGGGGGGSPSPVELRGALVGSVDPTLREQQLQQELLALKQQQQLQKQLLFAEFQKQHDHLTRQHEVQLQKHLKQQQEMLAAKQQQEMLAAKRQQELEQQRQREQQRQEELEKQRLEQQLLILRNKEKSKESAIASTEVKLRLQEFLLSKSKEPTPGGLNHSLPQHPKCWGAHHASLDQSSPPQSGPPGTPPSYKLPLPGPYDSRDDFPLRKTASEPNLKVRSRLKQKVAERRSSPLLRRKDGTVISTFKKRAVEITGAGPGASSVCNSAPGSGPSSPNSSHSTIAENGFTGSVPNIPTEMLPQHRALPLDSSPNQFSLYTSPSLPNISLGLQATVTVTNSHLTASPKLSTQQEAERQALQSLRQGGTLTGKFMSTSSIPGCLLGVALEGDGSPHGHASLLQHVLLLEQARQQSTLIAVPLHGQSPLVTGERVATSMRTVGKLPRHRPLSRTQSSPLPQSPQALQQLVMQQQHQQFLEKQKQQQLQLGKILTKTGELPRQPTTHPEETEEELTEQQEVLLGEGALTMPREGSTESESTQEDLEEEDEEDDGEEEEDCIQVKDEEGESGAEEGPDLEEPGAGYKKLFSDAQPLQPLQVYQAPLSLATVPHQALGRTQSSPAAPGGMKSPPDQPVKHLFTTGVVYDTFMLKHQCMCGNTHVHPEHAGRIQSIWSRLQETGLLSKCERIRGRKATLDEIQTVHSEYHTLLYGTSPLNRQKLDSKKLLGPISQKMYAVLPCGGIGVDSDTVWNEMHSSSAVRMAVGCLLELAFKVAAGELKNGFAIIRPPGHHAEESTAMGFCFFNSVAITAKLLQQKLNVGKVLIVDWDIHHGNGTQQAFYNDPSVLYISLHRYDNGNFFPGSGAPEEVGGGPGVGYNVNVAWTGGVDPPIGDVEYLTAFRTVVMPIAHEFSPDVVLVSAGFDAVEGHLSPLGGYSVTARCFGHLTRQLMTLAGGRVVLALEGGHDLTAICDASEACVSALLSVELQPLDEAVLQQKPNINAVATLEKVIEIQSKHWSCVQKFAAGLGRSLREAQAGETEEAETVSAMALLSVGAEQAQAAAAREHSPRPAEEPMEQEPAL
Sequence of Runx2-del-415-418 (chain, as listed by the source): as the sequence (chain, as listed by the source) above
Sequence of myc-labeled HDAC4 (P56524 whole entry): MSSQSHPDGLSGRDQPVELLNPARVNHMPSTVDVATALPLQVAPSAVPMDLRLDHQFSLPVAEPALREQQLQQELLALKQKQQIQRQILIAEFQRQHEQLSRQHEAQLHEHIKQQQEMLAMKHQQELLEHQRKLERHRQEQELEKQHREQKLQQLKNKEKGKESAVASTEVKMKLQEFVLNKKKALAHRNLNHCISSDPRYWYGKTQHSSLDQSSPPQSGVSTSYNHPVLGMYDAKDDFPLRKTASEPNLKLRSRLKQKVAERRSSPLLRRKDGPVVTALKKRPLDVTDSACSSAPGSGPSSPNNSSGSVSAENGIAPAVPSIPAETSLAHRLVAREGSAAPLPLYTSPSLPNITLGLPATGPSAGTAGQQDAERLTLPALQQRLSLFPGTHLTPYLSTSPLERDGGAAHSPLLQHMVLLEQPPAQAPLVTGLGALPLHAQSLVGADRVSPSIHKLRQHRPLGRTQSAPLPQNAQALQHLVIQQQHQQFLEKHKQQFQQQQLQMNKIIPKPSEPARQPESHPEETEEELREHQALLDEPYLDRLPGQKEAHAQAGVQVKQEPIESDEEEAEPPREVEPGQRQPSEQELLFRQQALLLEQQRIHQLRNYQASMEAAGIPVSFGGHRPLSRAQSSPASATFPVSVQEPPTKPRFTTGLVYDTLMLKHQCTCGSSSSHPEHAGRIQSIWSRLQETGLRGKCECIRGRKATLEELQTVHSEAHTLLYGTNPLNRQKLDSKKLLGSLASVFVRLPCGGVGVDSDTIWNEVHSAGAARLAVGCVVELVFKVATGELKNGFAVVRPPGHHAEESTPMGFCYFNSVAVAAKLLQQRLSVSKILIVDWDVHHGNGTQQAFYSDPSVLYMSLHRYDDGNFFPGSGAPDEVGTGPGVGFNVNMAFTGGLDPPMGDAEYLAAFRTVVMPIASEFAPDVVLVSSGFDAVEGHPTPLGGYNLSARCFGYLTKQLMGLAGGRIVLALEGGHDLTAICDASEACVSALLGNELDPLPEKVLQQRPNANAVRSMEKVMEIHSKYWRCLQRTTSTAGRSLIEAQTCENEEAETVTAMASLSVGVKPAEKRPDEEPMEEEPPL

Row | Substance | Smurf1-mediated degradation of Runx2 (Western blot of Runx2 level) [1] | Smurf1-mediated degradation of Runx2 (Western blot of Runx2 level) [2] | Runx2 deacetylation (immunoprecipitation with anti-acetyl-lysine antibody, Western blot with anti-myc antibody) [3]
1 | Smurf1 (Smad ubiquitin regulatory factor 1) | Runx2-del-415-418 and Runx2-P415R were very stable, which means they were strongly resistant to Smurf1-mediated degradation | Runx2-del-415-418 and Runx2-P415R were very stable, which means they were strongly resistant to Smurf1-mediated degradation | 
2 | myc-labeled HDAC4 |  |  | histone deacetylases 4 and 5 deacetylate Runx2
3 | myc-labeled HDAC5 |  |  | histone deacetylases 4 and 5 deacetylate Runx2
